In PMC6002714, “Bovine Herpesvirus 1 UL49.5 Interacts with gM and VP22 To Ensure Virus Cell-to-Cell Spread and Virion Incorporation: Novel Role for VP22 in gM-Independent UL49.5 Virion Incorporation” (Journal of Virology, 2018):

Biological target: the molecule itself
Test: non-reducing SDS-PAGE with immunoblot; lysates of virus-infected MDBK cells separated by SDS-PAGE without DTT (compared with +DTT), immunoblotted with anti-UL49.5 or anti-gM; shows only covalently (disulfide) linked complexes

B1: BHV-1 envelope glycoprotein M (gM) (natural protein)
chain: MAGSAQPAAVHWRLWLAQVGVFAALALLLLITLIGAASPGAGLPCFYAAIVNYNARNLSADGGAWAQRELGARHPALFLETPTTAAFSAYTAVVLLAVAAFDVAAAIIIRRENSGGFAAAYHMNALATLATPPGALLLGALAAWTLQAAVLLLSHKIMVLAAATYLAHAGAAAAFVGLFCTAGLPGAEYAQAVHALRERSPRAHRLLGPGRAVMINLAGGLLALIIGTAPLMLGQLLGAGLGLSLAQTVVAGVTVFCLAAVLFLVLTELVLSRYTQVLPGPAFGTLVAASCIAVASHDYFHQLRGVVRTQAPGLPLGVKLALAGVALLAVAMLVLRLVRACLHHRRKGSAFYGHVSAARQQAARYIARARSSRGMAPLEGDAAALLDRGVASDDEEAVYEADARPARQPYR
notes: glycoprotein M of bovine herpesvirus type 1, encoded by the UL10 gene; gM open reading frame nt 84816 to 86051 of GenBank JX898220 (complementary strand; residues up to 411); expressed from the viral genome; 36-kDa immature, EndoH-sensitive gM in infections with the C42S mutants; also called 43-kDa mature gM; 36-kDa immature gM; source: BHV-1 wt or UL49.5 mutant virus-infected MDBK cells, in …
stoichiometry N: 2
